According to publication PMC7721913 (The Journal of Cell Biology, 2020):

B1: KIF5B: kinesin heavy chain KIF5B (protein, UniProt P33176 2-963, looked up)
Kinesin-1 heavy chain: ADLAECNIKVMCRFRPLNESEVNRGDKYIAKFQGEDTVVIASKPYAFDRVFQSSTSQEQVYNDCAKKIVKDVLEGYNGTIFAYGQTSSGKTHTMEGKLHDPEGMGIIPRIVQDIFNYIYSMDENLEFHIKVSYFEIYLDKIRDLLDVSKTNLSVHEDKNRVPYVKGCTERFVCSPDEVMDTIDEGKSNRHVAVTNMNEHSSRSHSIFLINVKQENTQTEQKLSGKLYLVDLAGSEKVSKTGAEGAVLDEAKNINKSLSALGNVISALAEGSTYVPYRDSKMTRILQDSLGGNCRTTIVICCSPSSYNESETKSTLLFGQRAKTIKNTVCVNVELTAEQWKKKYEKEKEKNKILRNTIQWLENELNRWRNGETVPIDEQFDKEKANLEAFTVDKDITLTNDKPATAIGVIGNFTDAERRKCEEEIAKLYKQLDDKDEEINQQSQLVEKLKTQMLDQEELLASTRRDQDNMQAELNRLQAENDASKEEVKEVLQALEELAVNYDQKSQEVEDKTKEYELLSDELNQKSATLASIDAELQKLKEMTNHQKKRAAEMMASLLKDLAEIGIAVGNNDVKQPEGTGMIDEEFTVARLYISKMKSEVKTMVKRCKQLESTQTESNKKMEENEKELAACQLRISQHEAKIKSLTEYLQNVEQKKRQLEESVDALSEELVQLRAQEKVHEMEKEHLNKVQTANEVKQAVEQQIQSHRETHQKQISSLRDEVEAKAKLITDLQDQNQKMMLEQERLRVEHEKLKATDQEKSRKLHELTVMQDRREQARQDLKGLEETVAKELQTLHNLRKLFVQDLATRVKKSAEIDSDDTGGSAAQKQKISFLENNLEQLTKVHKQLVRDNADLRCELPKLEKRLRATAERVKALESALKEAKENASRDRKRYQQEVDRIKEAVRSKNMARRGHSAQIAKPIRPGQHPAASPTHPSAIRGGGAFVQNSQPVAVRGGGGKQV
B2: KIF5A^R280H: KIF5A mutant associated with CMT2 (protein)
chain: MAETNNECSIKVLCRFRPLNQAEILRGDKFIPIFQGDDSVIIGGKPYVFDRVFPPNTTQEQVYHACAMQIVKDVLAGYNGTIFAYGQTSSGKTHTMEGKLHDPQLMGIIPRIARDIFNHIYSMDENLEFHIKVSYFEIYLDKIRDLLDVTKTNLSVHEDKNRVPFVKGCTERFVSSPEEILDVIDEGKSNRHVAVTNMNEHSSRSHSIFLINIKQENVETEQKLSGKLYLVDLAGSEKVSKTGAEGAVLDEAKNINKSLSALGNVISALAEGTKSYVPYHDSKMTRILQDSLGGNCRTTMFICCSPSSYNDAETKSTLMFGQRAKTIKNTASVNLELTAEQWKKKYEKEKEKTKAQKETIAKLEAELSRWRNGENVPETERLAGEDSALGAELCEETPVNDNSSIVVRIAPEERQKYEEEIRRLYKQLDDKDDEINQQSQLIEKLKQQMLDQEELLVSTRGDNEKVQRELSHLQSENDAAKDEVKEVLQALEELAVNYDQKSQEVEEKSQQNQLLVDELSQKVATMLSLESELQRLQEVSGHQRKRIAEVLNGLMRDLSEFSVIVGNGEIKLPVEISGAIEEEFTVARLYISKIKSEVKSVVKRCRQLENLQVECHRKMEVTGRELSSCQLLISQHEAKIRSLTEYMQTVELKKRHLEESYDSLSDELARLQAHETVHEVALKDKEPDTQDAEEVKKALELQMENHREAHHRQLARLRDEINEKQKTIDELKDLNQKLQLELEKLQADYERLKNEENEKSAKLQELTFLYERHEQSKQDLKGLEETVARELQTLHNLRKLFVQDVTTRVKKSAEMEPEDSGGIHSQKQKISFLENNLEQLTKVHKQLVRDNADLRCELPKLEKRLRATAERVKALEGALKEAKEGAMKDKRRYQQEVDRIKEAVRYKSSGKRGHSAQIAKPVRPGHYPASSPTNPYGTRSPECISYTNNLFQNYQNLHLQAAPSSTSDMYFASSGATSVAPLASYQKANMDNGNATDINDNRSDLPCGYEAEDQAKLFPLHQETAAS
modifications: left off: FLAG, N-terminal, kept

Key:
[1] = tested on: CB and distal axon compartments of DRG neurons; assay: Western blot of KIF5 and KLC in cell body and distal axon lysates; format: cell-based, rat; settings: Campenot CB vs distal axon lysates
[2] = tested on: DRG neurons; DRGs and sciatic nerve of P1 mice; assay: Immunostaining of KIF5s in DRG neurons, DRGs and sciatic nerve; design: species or system rat; mouse; settings: microfluidic DRG neurons, DRGs and sciatic nerves in vivo
[3] = tested on: bclw and β actin mRNA in DRG neurons; assay: Quantitative RT-PCR of mRNA in cell bodies and distal axons; format: cell-based, rat; settings: vs WT control; normalized to gapdh; 3 independent experiments
[4] = tested on: mitochondria in axons of DRG neurons; assay: Mitochondrial transport assay; format: cell-based, rat; settings: vs control; ∼115 mitochondria, 10 axons, three experiments
[5] = tested on: HA-SFPQ; assay: Coimmunoprecipitation of HA-SFPQ with KLC1/KIF5A constructs in HEK 293T cells; settings: KIF5A^R280H vs WT KIF5A, n = 7, P = 0.0019

Molecule | compartment localization (in words) [1] | axonal localization of KIF5B by immunostaining (in words) [2] | axonal bclw mRNA level (in words) [3] | axonal β actin mRNA level (in words) [3] | mitochondria transport (in words) [4] | reduction in binding to SFPQ [5]
B1 | preferentially localizes in the CB compartment | largely excluded from axons | – | – | – | –
B2 | – | – | significantly decreased | not affected | did not alter mitochondria transport | ~50%
